Assay: yeast display, Sf9 membrane polyspecificity reagent, FACS + sequencing; frameworks hold sequencing errors
Summary of the method: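 Using colony PCR, genes from sorted yeast display clones were amplified, then sequenced on MiSeq at 2 × 250 and filtered by CDR length. The clones had been stained with 10% biotinylated, detergent-solubilized Sf9 membrane reagent for 1 hour at 4 °C and sorted by FACS into low and high (top ~1%) gates on anti-HA and streptavidin fluorescence. Polyreactivity labels come from the gate of origin.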

Sequence	polyreactivity (PSR sort gate)
QVQLVESGGGLVQAGGSLRLSCAASGSTFTSNAMGWYRQAPGKERELVASISGSGGRTYYADSVKGRFTISRDNAKNTVYLQMNSLKPEDTAVYYCNAESRNLYSTQFDYLGQGTQVTVSS	low polyreactivity
QVQLVESGGGLVQAGGSLRLSCAASGSTFTSYAMGWYRQAPGKERELVAAINWSGGSTYYADSVKGRFTISRDIAKNTVYLQMNSLKPEDTAVYYCAVLYRYGYDYWGQGTQVTVSS	low polyreactivity
QVQLVESGGGLVQAGGSLRLSCAASGSTFTSYAMGWYRQAPGKERELVAAITSRGGTSYADSVKGRFTISRDNAKNTVYLQMNSLKPEDTAVYYCAARATYKKYPYVKWYDYWGQGPQVTVSS	high polyreactivity
QVQLVESGGGLVQAGGSLRLSCAASGSTFTSYAMGWYRQAPGKERELVAAITYGSGTTYADSVKGRFTISRDNAKNTVYLQMNSLKPEDTAVYYCAADFYYPVLGHGFPTYEYDYWGQGTQVTVSS	low polyreactivity
QVQLVESGGGLVQAGGSLRLSCAASGSTFTSYDMGWYRQAPGKERELVAAITISSGGTYYADSVKGRFTISRDNAKITVYLQMNSLKPEDTAVYYCAADIFADASYDYWGQGTQVTVSS	low polyreactivity
QVQLVESGGGLVQAGGSLRLSCAASGSTFTTNAMGWDRQAPGKERELVAAITWSVGSTYYADSVKGRFTISRDYAKNTVYLQMNSVKPEDNAVYYCAAYHPPGDTYEYWGQGTQVTVSS	low polyreactivity
QVQLVESGGGLVQAGGSLRLSCAASGSTFTTYAMGWYRQAPGKERELVAVITDSGGTYYADSVKGRFTISRDNAKNTVYLQMNSLKPEDTAVYYCNRFFPPTDYEFDSWGQGTQVTVSS	low polyreactivity
QVQLVESGGGLVQAGGSLRLSCAASGSTFTTYAMGWYRQAPGKESELVAAITWSVGSTYYADSVMGRFTISRDNAKNTVYLQMNSLKPEDTAVYYCAADPTGGVGFDGYYWGQGTQVTVSS	low polyreactivity
QVQLVESGGGLVQAGGSLRLSCAASGSTFTVNGMGWYRQAPGKERELVASITWSGGSTYYADSVKGRFTISRDNAKNTVYLLMNSLKPEDTAVYYCAADEKLYITGYDYWGHGTQVTVSS	low polyreactivity
QVQLVESGGGLVQAGGSLRLSCAASGSTFTVNGMGWYRQAPGKERELVASITWSGGSTYYADSVKGRFTISRDNAKNTVYLQMNSLNPEDTAVYYCAADEKLYITGYDYWVQGTQVTVSS	low polyreactivity
QVQLVESGGGLVQAGGSLRLSCAASGSTFTVNGMGWYRQAPGKERELVASITWSGGSTYYADTVKGRFTISRDNAKNTVYLQMNSLKPEDTAVYYCAADEKLYITGYDYWGQGTQVTVSS	low polyreactivity
QVQLVESGGGLVQAGGSLRLSCAASGSTFTVYAMGWYRQAPGKERELVAAISSSTGSTYYADSVKGRFTISRDNAKNTVYLQMNSLKPEDTAVYYCAADVYQVTTSSYTEFEYWGQGTQVTVSS	low polyreactivity
QVQLVESGGGLVQAGGSLRLSCAASGSTFTWNVMGWYRQAPGKERELVASITSGDSTYADSVKGRFTISRDNAKNTVYLQMNSLKPEDTAVYYCNVGYDQEKYGYWGQGTQVTVSS	low polyreactivity
QVQLVESGGGLVQAGGSLRLSCAASGSTFTWYAMGWSRQAPGKERELVADISYGGGSTYYADSVKGRFTISRDNAKNTVYLQMNSLKPEDTAVYYCAAESIPYYRYDYWGQGTQVTVSS	low polyreactivity
QVQLVESGGGLVQAGGSLRLSCAASGSTFTYNAMGWYRQAPGKERELVAVIRPGGNTNDADSVKGRFTISRDNAKNTVYLQMNSLKPEDTAVYYCAKYFGNYSIYDYWGQGTQVTVSS	low polyreactivity
QVQLVESGGGLVQAGGSLRLSCAASGSTFTYNARGWYRQAPGKERELVAVIRPGGTTNYADSVKGRFTISRDNAKNTVYLQMNSLKPEDTAVYYCAKFFGNYSIYDYWGQGTQVTVSS	low polyreactivity
QVQLVESGGGLVQAGGSLRLSCAASGSTFTYNTMGWYRQAPGKERELVAAINTTGNTYADSVKGRFTISRDNAKNTVYLQMNSLKPEDTAVYYCNTDYVPRRHDMDYWGQGTQVTVSS	low polyreactivity
QVQLVESGGGLVQAGGSLRLSCAASGSTFTYNTMGWYRQAPGKERELVAAISSGGSTYYADSVKGRFTISRDNAKNTVYLQMNSLKPEDTAVYYCAATAQKDSRYGSRYYYWGQGTQVTVSS	high polyreactivity
QVQLVESGGGLVQAGGSLRLSCAASGSTFTYYAMGWYRQAPGKERELVAAIRNGGSTNYADSVKGRFTISRDNAKNTVYFQMNSLKPEDTAVSYCAADQYYYTQPCDMDYWGQGTQVTVSS	high polyreactivity
QVQLVESGGGLVQAGGSLRLSCAASGSTFTYYAMGWYRQAPGKERELVAAISSTDSTYYADSVKGRFTISRDNAKNTVYVQMNSLKPEDTAVYYCAAVRFSHSRETRRGYWGQGTQVTVSS	high polyreactivity
QVQLVESGGGLVQAGGSLRLSCAASGSTFTYYAMGWYRQAPGKERELVAAITFRGDSTYYADSVKGRFTISRDNAKNTVYLQMNSLKPEDTAVYYCNADSISSTYYDEDYWGQGTQVTVSS	low polyreactivity
QVQLVESGGGLVQAGGSLRLSCAASGSTFTYYAMGWYRQAPGKERELVADISRDGGSTYYADSVKGRFTISRDNAKNTVNLQMNSLKPEDTAVYYCATDMVYKYDYWGQGTQVTVSS	low polyreactivity

Sequence	polyreactivity (PSR sort gate)
QVQLVESGGGLVQAGGSLRLSCAASGSTFTYYAMGWYRQAPGKERELVASINWSGGSTRYADSVKGRFTISRDNAKNTVYLQMNSLKPEDTAVYYCAARKSPRSQVRGRSYYWGQGTQVTVSS	high polyreactivity
QVQLVESGGGLVQAGGSLRLSCAASGSTFTYYSMGWYRQAPGKERELVDAITGRGGRTYYADSVKGRFTISRDNAKNTVYLQMNSLKPEDTAVYYCARYQSSDTYWTKYDYWGQGTQVTVSS	high polyreactivity
QVQLVESGGGLVQAGGSLRLSCAASGSTFVDYAMGWYRQAPGKERELVAAISSSGSTNYADSVKGRFTISRDNAKNTVYLQMNSLKPEDTAVYYCNADGNPDFYYSFYDEYDYWGQGTQVTVSS	low polyreactivity
QVQLVESGGGLVQAGGSLRLSCAASGSTFVGNAMGWYRQAPGKERELVAAITWSGGTYYADSVKGRFTISRDNAKNTVYLQMNSLKPEDTAVYYCNAEWRVYPDLYDYWGQGTQVTVSS	low polyreactivity
QVQLVESGGGLVQAGGSLRLSCAASGSTFVGYAMGWYRQAPGKEMEFVAAITRGGSTNYADSVKGRFTISRDNAKNTVYLQMNSLKPEDTAVYYCAARDRREGFIFDYWGQGTQVTVSS	low polyreactivity
QVQLVESGGGLVQAGGSLRLSCAASGSTFVGYAMGWYRQAPGKERELVAAISGSGTSTYYADSVKGRFTISRDNAKNTVYLQMNSLKPEDTAVYYCNADPIFVYSSYNYWGQGTQVTVSS	low polyreactivity
QVQLVESGGGLVQAGGSLRLSCAASGSTFVGYAMGWYRQAPGKERELVADIDSIGGSTYYADSVKGRFTISRDYAKNTVYLQMNSLKPEDTAVYYCAARRFDTALVLYDYWGQGTQVTVSS	low polyreactivity
QVQLVESGGGLVQAGGSLRLSCAASGSTFVHYAMGWYRQAPGKEREFVASITRSGTSTYYADSVKGRFTISRDNAKNNVYLQMNSLKPEDTAVYYCNAELLGARQYWYYRYYYWGQGTQVTVSS	high polyreactivity
QVQLVESGGGLVQAGGSLRLSCAASGSTFVINAMGWYRQAPGKEREFVAAISYSRGITYYADSVKGRFTISRDNAKNYVDLQMNSLKQEDTAVYYCAVSPFENRDSGYDYWGQCTQVTVSS	low polyreactivity
QVQLVESGGGLVQAGGSLRLSCAASGSTFVINAMGWYRQAPGKERELVADIDYRGGSTNYADSVKGRFTISRDNAKNTVYLPMNSLKPEDTAVYYCNKRYVIRRRGYDYWGQGTQVTVSS	low polyreactivity
QVQLVESGGGLVQAGGSLRLSCAASGSTFVINAMGWYRQAPGKERELVARISSSGGRTYYADSVKGRFTISRDNAKNTVYLQMNSLKPEDTAVYYCAKRGYLFLRGSVRVGYNYWGHGTQVTVSS	low polyreactivity
QVQLVESGGGLVQAGGSLRLSCAASGSTFVIYAMGWYRQAPGKERELVAAISGRTGSTYYADSVKGRFTISRDNAKNTVYLQMNSLKPEDTAVYYCAAYKRSGLKYGHWGQGTQVTVSS	high polyreactivity
QVQLVESGGGLVQAGGSLRLSCAASGSTFVIYAMGWYRQAPGKERELVATITSGGSTYYADSVKGRFTISRDNAKNTVYLQMNSLKPEDTAVYYCAADDWGWPFYYYDDPMDYWGQGTQVTVSS	high polyreactivity
QVQLVESGGGLVQAGGSLRLSCAASGSTFVKNAMGWYRQAPGKERELVAAISYRGGRTYYADSVKGRFTISRDNAKNTVYLQMNSLKPEDTAVYYCAADYISVYGYEYYYWGQGTQVTVSS	high polyreactivity
QVQLVESGGGLVQAGGSLRLSCAASGSTFVKNTMGWYRQAPGKERELVAAIRSSGGSTYYADSVKGRFTISRDNAKNTVYLQMNSLKPEDTAVYYCAAPRVSVHGGGYWGQGTQVTVSS	high polyreactivity
QVQLVESGGGLVQAGGSLRLSCAASGSTFVKNVMGWYRQAPGKERELVAGITRGGSTYYADSVKGRFTISRDNAKNTGSLQMNSLKPEDTAVYYCANRYAWDRDYWGQGTQVTVSS	high polyreactivity
QVQLVESGGGLVQAGGSLRLSCAASGSTFVKYTMGWYRPAPGKERELVAAIRRRGGSTYYADSVKGRFTISRDNAKNTVYLQMNSLKPEDTAVYYCATAGQGAFWGQGTQVTVSS	high polyreactivity
QVQLVESGGGLVQAGGSLRLSCAASGSTFVKYVMGRYRQAPGKERELVAAISRSSVRTYYADSVKGRFTISRDNAKNTVYLQMNSLKPEDTAVYYCAVVLSTYSYADYDYWGQGTLVTVSS	high polyreactivity
QVQLVESGGGLVQAGGSLRLSCAASGSTFVLYAMGWYRQAPGKERELVAAIDSSGGSTYYADSVKGRFTISRDNAKNTVYLQMNSLKPEDTAVYYCAKAGRYANLPYGYWGQGTQVTVSS	high polyreactivity
QVQLVESGGGLVQAGGSLRLSCAASGSTFVLYAMGWYRQAPGKERELVAAISTSGGRTYYADSVKGRFTISRDNAKNTVNLQMNSLKPEDTAVYYCAALTYVAQYDEYWGQGTQVTVSS	low polyreactivity
QVQLVESGGGLVQAGGSLRLSCAASGSTFVNAMGWYRQAPGKERELVAAISLSGDSTYYADSVKGRFTISRDNAKNTVYLQMNCLKPEDTAVYYCNADGLGGEDPEYLWYPVPDYDYWGQGTQVTVSS	low polyreactivity

Reference: the nanobody polyreactivity screen of Harvey et al. (2022)
